We go through five molecules from patent publication US20140193421A1 (EISAI R AND D MANAGEMENT, published 2014).

In general, IC50 refers to the concentration needed to halve the response being measured. A low value points to inhibition by little substance.

In experiment [1] the target is T1, human XCR1-EGFP (human, UniProt P46094 1-333, EGFP fused to the receptor is not carried in the letters.).
T1 sequence: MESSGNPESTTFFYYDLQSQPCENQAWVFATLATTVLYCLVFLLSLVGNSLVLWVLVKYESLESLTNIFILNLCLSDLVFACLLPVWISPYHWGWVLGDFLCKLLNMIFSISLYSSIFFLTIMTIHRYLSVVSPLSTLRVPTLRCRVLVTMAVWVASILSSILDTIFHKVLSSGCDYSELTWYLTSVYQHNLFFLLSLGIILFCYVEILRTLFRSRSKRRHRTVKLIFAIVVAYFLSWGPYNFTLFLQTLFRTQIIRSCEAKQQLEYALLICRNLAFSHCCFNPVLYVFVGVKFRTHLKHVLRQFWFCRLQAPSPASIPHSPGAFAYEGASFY
The experiment in a line: cell-based or functional assay.

Experiment [2] deals with T1, human XCR1-EGFP. The experiment in a line: cell-based or functional assay. This is another data set of the same source.
The target in experiment [3] is T1, human XCR1-EGFP. Briefly: competitive ligand binding assay, FACS on human XCR1-EGFP BaF3 cells; competitor human XCL1-SSS-His(10) at 0.12 µg/mL. How it is done:
The competitive ligand binding assay was performed according to the following procedure. Parent BaF3 cells and human XCR1-EGFP-expressing BaF3 cells were mixed at a 1:1 ratio, and suspended in a FACS buffer (1% FBS-containing PBS⁻ (Sigma)). The cells were blocked for 10 minutes on ice with a FACS buffer containing 10% rat serum. The cells were then incubated for 20 minutes on ice with mouse anti-human XCR1 antibodies (2H6, 5G7, or 11H2), mouse isotype control antibodies, IgG2a (eBioscience, #16-4724-85), or IgG2b (eBioscience, #16-4732-85) at various concentrations from 0 to 150 μg/mL. Next the cells were incubated for 30 minutes on ice with human XCL1-SSS-His(10) at a saturating concentration of 0.12 μg/mL. The cells were washed with the FACS buffer three times, and then incubated for 20 minutes on ice with anti-6×His tag antibody (BETHYL, #A190-114A, diluted at 1:100 in FACS buffer). […] Next the cells were once again washed three times with the FACS buffer, and then suspended in FACS buffer. The fluorescence intensity was measured using a FACSCanto II cell analyzer (BD Bioscience).

Experiment [4] has as its target T1, human XCR1-EGFP. Briefly: cell-based or functional assay. This is another data set of the same source.
For experiment [5], the target named is T2, human XCR1 peptide 172-183 SSGCDYSELTWY (human).
T2 peptide: Biotin-GSGSSSGCDYSELTWY
Briefly: peptide ELISA on streptavidin plates. How it is done:
(§1) Streptavidin-coated microtiter plates (Perkin Elmer) were coated with 50 μg/mL of peptide per well in a volume of 50 μL, and incubated at room temperature for 1 hour. The peptide solution was removed and PBS⁻ containing 4% Block-Ace was added to each well and incubated overnight at 4° C. Each well was washed three times with an ELISA wash buffer (0.02% Tween20 in PBS−). Anti-human XCR1 antibodies (2H6, 5G7, or 11H2) were added to each well in amount of 10 μg/mL, and incubated for 6 hours at room temperature. Each well was washed three times with the ELISA wash buffer. Horseradish peroxidase-conjugated donkey anti-mouse IgG antibody (Jackson, #715-035-150), diluted 1:5,000 in the ELISA wash buffer, was added to each well and incubated for 1 hour at room temperature. Each well was washed three times with the ELISA wash buffer. TMBZ (3,3′,5,5′ tetramethyl benzidine; Sigma) was added to each well and incubated at room temperature. The reaction was stopped with 2NH₂SO₄, and A₄₅₀ₙₘ was measured by Arvo plate reader (PerkinElmer).

Experiment [6] concerns the target T3, human XCR1 peptide 19-30 SQPCENQAWVFA (human).
T3 peptide: Biotin-GSGSSQPCENQAWVFA
The experiment in a line: peptide ELISA on streptavidin plates. How it is done: as §1

Experiment [7] has as its target T4, human XCR1 peptide 175-186 CDYSELTWYLTS (human).
T4 peptide: Biotin-GSGSCDYSELTWYLTS
Briefly: peptide ELISA on streptavidin plates. How it is done:
as §1
(In general: ELISA stands for enzyme-linked immunosorbent assay.)

Experiment [8] concerns the target T5, human XCR1 peptide 11-22 TFFYYDLQSQPC (human).
T5 peptide: Biotin-GSGSTFFYYDLQSQPC
The experiment in a line: peptide ELISA on streptavidin plates. How it is done: as §1

Where no end group is shown, it is not given here. The star is where a group is joined. Biotin = O=C1N[C@H]2[C@H](CS[C@H]2CCCCC(=O)*)N1

B1: mouse anti-human XCR1 antibody (2H6) (antibody, IgG2b, V domains shown)
VH: QAYLQQSGAELVRPGASVKMSCKASGYTFSSHNMHWIKQTLRQGLEWIGAIYPGKGNTSYNQKFKGKATLTVDKSSSTAYMQLSSLTSEDSAVYFCARWGSVVGDWYFDVWGTGTTVTVSS
VL: DVVVTQTPLSLPVSLGDQASISCRSSQSLVHSNGNTYLHWYLQKPGQSPKLLIYRVSNRFSGVPDRFSGSGLGRDFTLKISRVEAEDLGVYFCSQSTFVPWTFGGGTKLEIK
As to B1, in experiment [1], the “IC50 (nM), chemotaxis assay” value worked out at 1.28 nM and the “IC90 (nM), chemotaxis assay” value was 7.6 nM. In experiment [2], the “IC50 of growth suppression with saporin-conjugated Fab anti-mouse IgG secondary antibody” value (“IC50 of growth suppression” for short) was found to be 0.141 nM and the “concentration of complete inhibition of cell migration, chemotaxis assay” value is approximately 3 µg/mL. In experiment [3], the IC50 is 37 nM.

B2: mouse anti-human XCR1 antibody (5G7) (antibody, IgG2b, V domains shown)
VH: QAYLQQSGAELVRPGASVKMSCKASGYTFTSHNLHWVKQTPRQGLQWIGAIYPGNGNTAYNQKFKGKATLTVDKSSSTAYMQLSSLTSDDSAVYFCARWGSVVGDWYFDVWGTGTTVTVSS
VL: DVVMTQTPLSLPVTLGNQASIFCRSSLGLVHRNGNTYLHWYLQKPGQSPKLLIYKVSHRFSGVPDRFSGSGSGTDFTLKISRVEAEDLGVYFCSQSTHVPWTFGGGTKLEIK
notes: also called 5G7 Mab; parent antibody 5G7
For the molecule B2, in experiment [1], the “IC50 (nM), chemotaxis assay” value was 0.63 nM and the “IC90 (nM), chemotaxis assay” value came to 2.52 nM. In addition, in experiment [2], the “IC50 of growth suppression” value came to 0.017 nM and the “concentration of complete inhibition of cell migration, chemotaxis assay” value was approximately 3 µg/mL. For the same molecule, the IC50 in experiment [3] came out at 6.9 nM.

B3: humanized anti-human XCR1 antibody HK1L2 (antibody, human IgG2, kappa, V domains shown)
VH: QVQLVQSGAEVKKPGASVKVSCKASGYTFTSHNLHWVRQAPGQRLEWMGAIYPGNGNTAYNQKFKGRVTITRDTSASTAYMELSSLRSEDTAVYYCARWGSVVGDWYFDVWGQGTLVTVSS
VL: DVVMTQSPLSLPVTLGQPASISCRSSLGLVHRNGNTYLHWFQQRPGQSPRLLIYKVSHRFSGVPDRFSGSGSGTDFTLKISRVEAEDVGVYYCSQSTHVPWTFGQGTKVEIKR
Turning to B3, in experiment [4], the “IC50 (nM), chemotaxis assay, Assay-1” value turned out to be 0.1 nM; the “IC50 (nM), chemotaxis assay, Assay-2” value is 0.25 nM; the “IC50 (nM), chemotaxis assay, Assay-3” value was 0.12 nM.

B4: humanized anti-human XCR1 antibody HK5L5 (antibody, human IgG2, kappa, V domains shown)
VH: QVQLVQSGAEVKKPGASVKVSCKASGYTFTSHNLHWVRQAPGQGLEWMGAIYPGNGNTAYNQKFKGRVTMTRDTSTSTVYMELSSLRSEDTAVYYCARWGSVVGDWYFDVWGQGTLVTVSS
VL: DIVMTQTPLSLPVTPGQPASISCRSSLGLVHRNGNTYLHWYLQKPGQSPQLLIYKVSHRFSGVPDRFSGSGSGTDFTLKISRVEAEDVGVYYCSQSTHVPWTFGQGTKVEIKR
With B4, in experiment [4], the “IC50 (nM), chemotaxis assay, Assay-1” value stood at 0.52 nM; the “IC50 (nM), chemotaxis assay, Assay-2” value amounted to 0.36 nM; the “IC50 (nM), chemotaxis assay, Assay-3” value stood at 0.2 nM.

B5: mouse anti-human XCR1 antibody (11H2) (antibody, IgG2a, V domains shown)
VH: EVQLQQSGPVLVKPGASVKMSCKASGYTFTDYYVNWVKQSHGASLEWIGVSNPKNGDKSYNQKFKGKATLTVDKSSSTAYMELNSLTSEDSAVYYCARGLYYAGTYGYFDVWGTGTTVTVSS
VL: DIQMTQATSSLSASLGDRVTISCRASQDISNYLNWYQQKPDGTVKLLIYYTSRLHSGVPSRFRGSGSGTDFSLTISNLEQEDIATYFCQQGKTLPRTLGGGTKLEIK
On to B5, for which the “IC50 (nM), chemotaxis assay” value in experiment [1] was 0.99 nM. Besides, the “IC90 (nM), chemotaxis assay” value in experiment [1] was 6.32 nM. Besides, the binding result in experiment [5], in experiment [6], in experiment [7] and in experiment [8] was “no binding (tested: 10 µg/mL)” in each case. For the same molecule, the “IC50 of growth suppression” value in experiment [2] was found to be 0.155 nM. Moreover, the “concentration of complete inhibition of cell migration, chemotaxis assay” value in experiment [2] is approximately 3 µg/mL. Besides, the IC50 in experiment [3] worked out at 23.8 nM.
